We go through twelve molecules from patent US20210230266A1 (SINGAPORE HEALTH SERVICES PTE, published 2021).

In assay [1] the target is T1, FLAG-tagged human IL-11 expressed at the surface of transiently transfected cells (human, UniProt P20809 22-199).
T1 construct: also called IL-11 expressing HEK cells; target cells expressing human IL-11 at their surface; not shown: FLAG tag added to the N-terminus
T1 sequence: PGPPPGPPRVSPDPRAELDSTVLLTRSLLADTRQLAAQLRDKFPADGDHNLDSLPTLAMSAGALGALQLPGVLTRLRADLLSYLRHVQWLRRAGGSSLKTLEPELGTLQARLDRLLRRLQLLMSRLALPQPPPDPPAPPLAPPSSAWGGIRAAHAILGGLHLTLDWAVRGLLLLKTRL
As to the kind of experiment: flow cytometry, hybridoma supernatant on cells transfected with pB1-IL11-hum.FL; relative to the anti-FLAG positive control (100%).

Assay [2] addresses T1, FLAG-tagged human IL-11 expressed at …. As to the kind of experiment: flow cytometry, hybridoma supernatant on cells transfected with pB1-IL11-hum.FL. A general note: Flow cytometry measures light scatter and fluorescence of single cells or particles in a stream.
The target of assay [3] is T2, Mouse IL-11 (mouse, UniProt P47873 22-199, limits assumed).
T2 construct: also called murine IL-11; recombinant murine IL-11
T2 sequence (looked up): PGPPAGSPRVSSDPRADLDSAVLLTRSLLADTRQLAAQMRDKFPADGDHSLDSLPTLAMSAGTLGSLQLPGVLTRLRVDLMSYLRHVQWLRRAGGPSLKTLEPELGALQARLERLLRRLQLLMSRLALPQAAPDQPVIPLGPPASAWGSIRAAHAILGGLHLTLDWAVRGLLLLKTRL
As to the kind of experiment: SPR, BIAcore T200; KD from kd/ka. On the procedure:
(§1) Real-time binding kinetics of anti-IL-11 antibody BSN-3C6 to human and mouse IL-11 were measured by surface plasmon resonance (SPR) using a BIAcore T200 system (GE Healthcare, USA). The association and dissociation were measured for 250 s and 500 s respectively. The equilibrium binding constant KD was determined by the ratio of the binding rate constants kd/ka.

In assay [4] the target is T3, Human IL-11 (human, UniProt P20809 22-199).
T3 construct: Recombinant human IL-11 (GenScript Cat. No. Z03108-1) or IL-11 secreted by human cells; the mature form is said to have 178 residues; also called recombinant human IL-11; endogenously produced IL-11
T3 sequence: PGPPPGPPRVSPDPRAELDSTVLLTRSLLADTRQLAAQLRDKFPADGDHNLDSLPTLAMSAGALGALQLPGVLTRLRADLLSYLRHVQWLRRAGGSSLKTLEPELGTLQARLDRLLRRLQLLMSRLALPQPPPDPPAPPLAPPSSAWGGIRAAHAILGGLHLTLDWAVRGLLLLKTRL
Briefly: SPR, BIAcore T200; KD from kd/ka. How it is done: as §1
A general note: In SPR one partner is held on a chip, and binding of the other changes the refractive index at the surface.

Assay [5] has as its target T3, Human IL-11. Briefly: SPR, BIAcore T200; sensorgrams with association to 250 s and dissociation to 750 s. On the procedure: as §1
Assay [6] deals with T2, Mouse IL-11. As to the kind of experiment: real-time binding kinetics; the text says SPR (BIAcore T200), the sheet's axis reads Binding [nm]. How it is done:
as §1

The target of assay [7] is T3, Human IL-11. As to the kind of experiment: told from inhibition of MMP2 secretion by TGFB1-stimulated primary human atrial fibroblasts (FIG. 54A). How it is done:
Primary human atrial fibroblasts were incubated with TGFB1 (5 ng/ml) and varying concentrations of humanised 3C6 clones. MMP2 secretion into the supernatant by human atrial fibroblasts was assessed to estimate the % of inhibition.

B1: BSN-1H2 (antibody, IgG1, V domains shown)
VH: QAQLQQSGAELARPGASVKLSCKASGYTFTSYGITWVKQRTGQGLEWIGDIYPRSGNIYYNENFKGEATLTADKSSSTAYMQLSRLTSEDSAVYFCARSGWEGWFAYWGQGTLVTVSV
VL: DIVMTQSHKFMSTSVGDRVNITCKASQDVGSAVVWYQQKPGQSPKVLIYWASTRHTGVPDRFTGSGSGTDFTLTISNVQSEDLADYFCQQYSSYRTFGGGTKLEIK
notes: also called A1
Regarding B1, the “binding relative to anti-FLAG positive control” value in assay [1] turned out to be 157%. Moreover, the GMFI in assay [2] worked out at 197000.

B2: BSN-5B8 (antibody, V domains shown)
VH: QVQLQQSGAELARPGTSVKLSCKASGYTFTSYGISWVKQRTGQGLEWIGEIYPRSSNTYYNEKFKGKATLTADKSSSTAYMELRSLTSEDSADYFCARANWVGYFDVWGTGTTVTVSS
VL: DIVMTQSHKFMSTSVGDRVTITCKASQDVGTAVAWYQQKPGQSPKLLIYWASTRLTGVPDRFTGSGSGTYFTLTINNVQSEDLADYFCQQYSSYRTFGGGTKLEIK
In the case of B2, the “binding relative to anti-FLAG positive control” value in assay [1] worked out at 188%. In addition, in assay [2], the GMFI was found to be 236000.

B3: BSN-2G6 (antibody, V domains shown)
VH: QVQLQESGPELVKPGASVKIPCKASGYTFTDYNMDWVKQSHGKSLEWIGNINPDNGGTIYNQKFKGKATLTVDKSSSTAYMELRSLTSEDTAVYFCAREGPYGYTWFAYWGQGTLDTVSA
VL: DILLTQSPAILSVSPGERVSFSCRASQSIGTSIHWYQQRTNGSPRLLIKYASESISGIPSRFSGSGSGTDFTLSINSVESEDIADYYCQQSNSWPLTFGAGTKLELK
In the case of B3, the “binding relative to anti-FLAG positive control” value in assay [1] turned out to be 23%. In assay [2], this molecule registered a GMFI of 28600.

B4: BSN-3C6 (antibody, V domains shown)
VH: EVQLQQSGPELVKPGASVKIPCKASGYTFTDYNMDWVKQSHGKSLEWIGDINPHNGGPIYNQKFTGKATLTVDKSSSTAYMELRSLTSEDTAVYYCARGELGHWYFDVWGTGTTVTVSS
VL: DIVLTQSPASLAVSLGQRATISCRASKSVSTSGYSYIHWYQQKPGQPPKLLIYLASNLDSGVPARFSGSGSGTDFTLNIHPVEEEDAATYYCQHSRDLPPTFGGGTKLEIK
notes: Mouse monoclonal antibody from a hybridoma; also called A6; anti-IL-11 antibody clone BSN-3C6
For the molecule B4, the “binding relative to anti-FLAG positive control” value in assay [1] is 176%. The Kd in the assay with Mouse IL-11 [3] was determined as 2.38 nM; with Human IL-11 [4], 4.14 nM. In addition, the GMFI in assay [2] came to 222000. Further, the koff with Human IL-11 [5] was 0.000635 s⁻¹; with Mouse IL-11 [6], 0.000112 s⁻¹. Besides, the kon with Human IL-11 [5] was determined as 153000 M⁻¹ s⁻¹; in the assay with Mouse IL-11 [6], 46900 M⁻¹ s⁻¹.

B5: BSN-7D4 (antibody, V domains shown)
VH: EVQLQQSGPELVKPGASVKISCKASGYTFTDYNMDWVKQSQGKRLEWIGDINPNYGGTIYNQKFKGKATLTVDKSSSTAYMELRSLTSEDTTVYYCTRGELGHWYFDVWGTGTTVTVSS
VL: DIVLTQSPPSLTVSLGQRATISCRASKSVSASGYSYMHWYQQKPGQPPKLLIYLTSNLESGVPARFSGSGSGTDFTLNIHPVEEEDAATYYCQHSWDLPPTFGGGTKLEIK
notes: Mouse monoclonal antibody from a hybridoma; also called A12
As to B5, the “binding relative to anti-FLAG positive control” value in assay [1] is 176%. The molecule further had a GMFI in assay [2] of 221000.

B6: BSN-2E1 (antibody, V domains shown)
VH: QVQLQESGPELVKPGASVKIPCKASGYTFTDYNMDWVKQSHGKSLEWIGDINPHNGGPIYNQKFTGKATLTVDKSSSTAYMELRSLTSEDTAVYYCARGELGHWYFDVWGTGTTVTVSS
VL: NIVMTQSPKSMSMSVGERVTLTCKASENVVTYVSWYQQKPEQSPKLLIYGASNRYTGVPDRFTGSGSATDFTLTISSVQAEDLADYHCGQGYSYPYTFGGGTKLEIK
As to B6, the “binding relative to anti-FLAG positive control” value in assay [1] is 164%. For the same molecule, in assay [2], the GMFI came to 206000.

B7: Humanised 3C6 clone VH 2.2/VL 2.2 (antibody, V domains shown)
VH: EVQLVQSGAEVKKPGASVKISCKASGYTFTDYNMDWVKQAPGQRLEWIGDINPHNGGPIYNQKFTGRATLTVDKSASTAYMELSSLRSEDTAVYYCARGELGHWYFDVWGQGTTVTVSS
VL: DIVLTQSPASLALSPGERATLSCRASKSVSTSGYSYIHWYQQKPGQAPRLLIYLASNLDSGVPARFSGSGSGTDFTLTISSLEEEDFATYYCQHSRDLPPTFGQGTKLEIK
notes: also called 3C6 VH2.2/VL2.2
On to B7, for which the binding result with Human IL-11 [7] is “binds”.

B8: Humanised 3C6 clone VH 2.3/VL 2.3 (antibody, V domains shown)
VH: EVQLVQSGAEVKKPGASVKISCKASGYTFTDYNMDWVRQAPGQRLEWIGDINPHNGGPIYNQKFTGRVTLTVDKSASTAYMELSSLRSEDTAVYYCARGELGHWYFDVWGQGTTVTVSS
VL: DIVLTQSPATLSLSPGERATLSCRASKSVSTSGYSYIHWYQQKPGQAPRLLIYLASNLDSGVPARFSGSGSGTDFTLTISSLEPEDFATYYCQHSRDLPPTFGQGTKLEIK
As to B8, the binding result with Human IL-11 [7] is “binds”.

B9: Humanised 3C6 clone VH 2.2/VL 2.3 (antibody, V domains shown)
VH: EVQLVQSGAEVKKPGASVKISCKASGYTFTDYNMDWVKQAPGQRLEWIGDINPHNGGPIYNQKFTGRATLTVDKSASTAYMELSSLRSEDTAVYYCARGELGHWYFDVWGQGTTVTVSS
VL: DIVLTQSPATLSLSPGERATLSCRASKSVSTSGYSYIHWYQQKPGQAPRLLIYLASNLDSGVPARFSGSGSGTDFTLTISSLEPEDFATYYCQHSRDLPPTFGQGTKLEIK
For the molecule B9, the binding result with Human IL-11 [7] is “binds”.

B10: Humanised 3C6 clone VH 2.2/VL 2.4 (antibody, V domains shown)
VH: EVQLVQSGAEVKKPGASVKISCKASGYTFTDYNMDWVKQAPGQRLEWIGDINPHNGGPIYNQKFTGRATLTVDKSASTAYMELSSLRSEDTAVYYCARGELGHWYFDVWGQGTTVTVSS
VL: EIVLTQSPATLSLSPGERATLSCRASKSVSTSGYSYIHWYQQKPGQAPRLLIYLASNLDSGVPARFSGSGSGTDFTLTISSLEPEDFATYYCQHSRDLPPTFGQGTKLEIK
For the molecule B10, the binding result with Human IL-11 [7] is “binds”.

B11: Humanised 3C6 clone VH 2.2/VL 2.1 (antibody, V domains shown)
VH: EVQLVQSGAEVKKPGASVKISCKASGYTFTDYNMDWVKQAPGQRLEWIGDINPHNGGPIYNQKFTGRATLTVDKSASTAYMELSSLRSEDTAVYYCARGELGHWYFDVWGQGTTVTVSS
VL: DIVLTQSPASLALSPGERATLSCRASKSVSTSGYSYIHWYQQKPGQPPRLLIYLASNLDSGVPARFSGSGSGTDFTLNIHPLEEEDFATYYCQHSRDLPPTFGQGTKLEIK
notes: T0003 heads the columns Heavy chain and Light chain, but the entries are variable domains; also called 3C6 VH2.2/VL2.1
Take B11: the binding result with Human IL-11 [7] is “binds”.

B12: Humanised 3C6 clone VH 2.3/VL 2.2 (antibody, V domains shown)
VH: EVQLVQSGAEVKKPGASVKISCKASGYTFTDYNMDWVRQAPGQRLEWIGDINPHNGGPIYNQKFTGRVTLTVDKSASTAYMELSSLRSEDTAVYYCARGELGHWYFDVWGQGTTVTVSS
VL: DIVLTQSPASLALSPGERATLSCRASKSVSTSGYSYIHWYQQKPGQAPRLLIYLASNLDSGVPARFSGSGSGTDFTLTISSLEEEDFATYYCQHSRDLPPTFGQGTKLEIK
As for B12, the binding result with Human IL-11 [7] is given as “binds”.

Usually Kd stands for the constant that tells how readily two partners part at equilibrium. A higher Kd goes with weaker binding. Broadly, the koff is the rate constant with which the complex falls apart. A lower koff goes with slow dissociation. The kon is the second-order rate constant of association. A low value points to slower complex formation.
